US20140120555A1 (PIERRE FABRE MEDICAMENT, published 2014)
Each block holds one binder with its values, some of them ahead of it.

Experiments:
chimeric antibody c515H7 [1] = target: T1, chimeric antibody c515H7; experiment: SPR (Biacore X): m-FcγRI injected over c515H7 Mab immobilized on a CM4 sensorchip; Langmuir model
T1 construct: Human IgG1/kappa constant domains; also called c515H7 Mab; chimeric 515H7
Procedure: (§1) 2017 RU of c515H7 Mab were immobilized using the amine coupling kit chemistry on the second flowcell (FC2) of a CM4 sensorchip. The first flowcell (FC1) activated by NHS and EDC mixture and des-activated by ethanolamine served as the reference surface to check and subtract the non specific interaction between the analyte (Fc gamma receptors) and the sensorchip matrix.
(§2) The kinetic experiments were carried out at 25° Celsius at a flow rate of 30 μl/min. The HBS-EP buffer was used either as the running buffer or for the preparation of analyte solutions. The analyte solutions were injected during 90 seconds (association phase) with a 90 seconds delay (dissociation phase). An injection of running buffer as analyte was used as a double reference. All the sensorgrams were corrected by this double reference sensorgram.
(§3) After each injection of the analyte, the sensorchip was regenerated by injection of 20 mM NaOH, 75 mM NaCl solution.

[2] = target: T2, humanized antibody Hz515H7 VH1 D76N VL2; experiment: SPR (Biacore X): m-FcγRI injected over hz515H7VH1D76NVL2 Mab immobilized on a CM4 sensorchip; Langmuir model
T2 construct: IgG1/kappa; also called hz515H7VL2; hz515H7-1
Procedure: as §1, with “1964” for “2017”, “hz515H7VH1D76NVL2” for “c515H7”
as §2
(§4) After each injection of the analyte, the sensorchip was regenerated by injection of either 20 mM NaOH solution after h-FcγRI and m-FcγRIII or 10 mM NaOH after h-FcγRIIIA and m-FcγRI.

chimeric antibody c515H7 [3] = target: T1, chimeric antibody c515H7; experiment: SPR (Biacore X): m-FcγRI injected over c515H7 Mab immobilized on a CM4 sensorchip; heterogeneous ligand model, major component (81%)
Procedure: as §1, §2, §3

chimeric antibody c515H7 [4] = target: T1, chimeric antibody c515H7; experiment: SPR (Biacore X): m-FcγRI injected over c515H7 Mab immobilized on a CM4 sensorchip; heterogeneous ligand model, minor component (19%)
Procedure: as §1, §2, §3

[5] = target: T2, humanized antibody Hz515H7 VH1 D76N VL2; experiment: SPR (Biacore X): m-FcγRI injected over hz515H7VH1D76NVL2 Mab immobilized on a CM4 sensorchip; heterogeneous ligand model, major component (82%)
Procedure: as §1, with “1964” for “2017”, “hz515H7VH1D76NVL2” for “c515H7”
as §2, §4

[6] = target: T2, humanized antibody Hz515H7 VH1 D76N VL2; experiment: SPR (Biacore X): m-FcγRI injected over hz515H7VH1D76NVL2 Mab immobilized on a CM4 sensorchip; heterogeneous ligand model, minor component (18%)
Procedure: as §1, with “1964” for “2017”, “hz515H7VH1D76NVL2” for “c515H7”
as §2, §4

chimeric antibody c515H7 [7] = target: T1, chimeric antibody c515H7; experiment: SPR (Biacore X): h-FcγRI injected over c515H7 Mab immobilized on a CM4 sensorchip; Langmuir model
Procedure: as §1, §2, §3

[8] = target: T2, humanized antibody Hz515H7 VH1 D76N VL2; experiment: SPR (Biacore X): h-FcγRI injected over hz515H7VH1D76NVL2 Mab immobilized on a CM4 sensorchip; Langmuir model
Procedure: (§5) The experiments were carried out using a Biacore X device. The soluble forms of the four Fc […]gamma receptors used in this study were purchased from R&D Systems: […]

chimeric antibody c515H7 [9] = target: T1, chimeric antibody c515H7; experiment: SPR (Biacore X): h-FcγRI injected over c515H7 Mab immobilized on a CM4 sensorchip; heterogeneous ligand model, minor component (0%)
Procedure: as §1, §2, §3

chimeric antibody c515H7 [10] = target: T1, chimeric antibody c515H7; experiment: SPR (Biacore X): h-FcγRI injected over c515H7 Mab immobilized on a CM4 sensorchip; heterogeneous ligand model, major component (100%)
Procedure: as §1, §2, §3

[11] = target: T2, humanized antibody Hz515H7 VH1 D76N VL2; experiment: SPR (Biacore X): h-FcγRI injected over hz515H7VH1D76NVL2 Mab immobilized on a CM4 sensorchip; heterogeneous ligand model, minor component (1%)
Procedure: as §5

[12] = target: T2, humanized antibody Hz515H7 VH1 D76N VL2; experiment: SPR (Biacore X): h-FcγRI injected over hz515H7VH1D76NVL2 Mab immobilized on a CM4 sensorchip; heterogeneous ligand model, major component (99%)
Procedure: as §5

chimeric antibody c515H7 [13] = target: T1, chimeric antibody c515H7; experiment: SPR (Biacore X): m-FcγRIII injected over c515H7 Mab immobilized on a CM4 sensorchip; Langmuir model
Procedure: as §1, §2, §3

[14] = target: T2, humanized antibody Hz515H7 VH1 D76N VL2; experiment: SPR (Biacore X): m-FcγRIII injected over hz515H7VH1D76NVL2 Mab immobilized on a CM4 sensorchip; Langmuir model
Procedure: as §1, with “1964” for “2017”, “hz515H7VH1D76NVL2” for “c515H7”
as §2
Using the Langmuïr model the constant of dissociation was around 17 and 18 nM.

chimeric antibody c515H7 [15] = target: T1, chimeric antibody c515H7; experiment: SPR (Biacore X): m-FcγRIII injected over c515H7 Mab immobilized on a CM4 sensorchip; heterogeneous ligand model, minor component (1%)
Procedure: as §1, §2, §3

chimeric antibody c515H7 [16] = target: T1, chimeric antibody c515H7; experiment: SPR (Biacore X): m-FcγRIII injected over c515H7 Mab immobilized on a CM4 sensorchip; heterogeneous ligand model, major component (99%)
Procedure: as §1, §2, §3

[17] = target: T2, humanized antibody Hz515H7 VH1 D76N VL2; experiment: SPR (Biacore X): m-FcγRIII injected over hz515H7VH1D76NVL2 Mab immobilized on a CM4 sensorchip; heterogeneous ligand model, major component (66%)
[18] = target: T2, humanized antibody Hz515H7 VH1 D76N VL2; experiment: SPR (Biacore X): m-FcγRIII injected over hz515H7VH1D76NVL2 Mab immobilized on a CM4 sensorchip; heterogeneous ligand model, minor component (34%)

T1 sequence (heavy, as listed by the source, chain 1 of 2): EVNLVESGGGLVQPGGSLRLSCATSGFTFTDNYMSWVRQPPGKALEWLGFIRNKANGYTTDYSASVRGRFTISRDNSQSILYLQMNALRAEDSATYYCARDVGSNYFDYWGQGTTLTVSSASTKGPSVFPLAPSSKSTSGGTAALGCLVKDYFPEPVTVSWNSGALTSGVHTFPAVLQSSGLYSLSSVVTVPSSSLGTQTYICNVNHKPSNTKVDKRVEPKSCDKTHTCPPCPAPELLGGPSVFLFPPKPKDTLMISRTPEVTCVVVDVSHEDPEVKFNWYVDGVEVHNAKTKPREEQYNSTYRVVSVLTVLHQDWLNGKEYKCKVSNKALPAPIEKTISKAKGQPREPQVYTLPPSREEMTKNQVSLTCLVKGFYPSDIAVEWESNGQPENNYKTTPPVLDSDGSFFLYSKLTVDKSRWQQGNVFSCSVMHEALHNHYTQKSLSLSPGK
T1 sequence (light, as listed by the source, chain 2 of 2): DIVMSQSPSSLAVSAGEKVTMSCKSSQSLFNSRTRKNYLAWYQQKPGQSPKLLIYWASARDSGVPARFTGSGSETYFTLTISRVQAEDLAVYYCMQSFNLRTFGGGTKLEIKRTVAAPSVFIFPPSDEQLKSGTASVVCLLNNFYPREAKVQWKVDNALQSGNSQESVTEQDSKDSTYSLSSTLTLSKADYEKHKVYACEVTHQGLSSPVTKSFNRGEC
T2 sequence (heavy, as listed by the source, chain 1 of 2): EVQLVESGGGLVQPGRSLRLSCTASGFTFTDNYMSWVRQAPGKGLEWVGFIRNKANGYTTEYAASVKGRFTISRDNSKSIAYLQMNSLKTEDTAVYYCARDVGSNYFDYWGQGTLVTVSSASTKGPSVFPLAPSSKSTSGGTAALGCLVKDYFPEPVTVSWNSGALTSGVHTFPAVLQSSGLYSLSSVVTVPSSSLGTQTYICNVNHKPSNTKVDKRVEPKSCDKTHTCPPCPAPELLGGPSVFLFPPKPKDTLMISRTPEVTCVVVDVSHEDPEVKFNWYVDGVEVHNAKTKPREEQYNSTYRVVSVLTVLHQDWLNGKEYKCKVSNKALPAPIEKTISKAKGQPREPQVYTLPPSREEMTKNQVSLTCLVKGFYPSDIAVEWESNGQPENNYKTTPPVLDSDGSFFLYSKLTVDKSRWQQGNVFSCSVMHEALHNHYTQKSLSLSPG
T2 sequence (light, as listed by the source, chain 2 of 2): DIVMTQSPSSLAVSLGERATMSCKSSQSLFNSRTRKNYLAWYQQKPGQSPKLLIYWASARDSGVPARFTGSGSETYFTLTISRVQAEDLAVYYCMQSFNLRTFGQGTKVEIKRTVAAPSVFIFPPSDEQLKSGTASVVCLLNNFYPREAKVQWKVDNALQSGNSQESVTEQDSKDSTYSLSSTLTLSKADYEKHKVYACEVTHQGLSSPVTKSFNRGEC

t1/2 (chimeric antibody c515H7 [1]): 0.17 min
t1/2 [2]: 0.18 min
t1/2 (chimeric antibody c515H7 [3]): 0.08 min
t1/2 (chimeric antibody c515H7 [4]): 0.3 min
t1/2 [5]: 0.11 min
t1/2 [6]: 0.53 min
B1: Recombinant mouse FcγRI [CD64], Gln25-Pro297 with C-terminal 6-His tag (receptor)
chain: EVVNATKAVITLQPPWVSIFQKENVTLWCEGPHLPGDSSTQWFINGTAVQISTPSYSIPEASFQDSGEYRCQIGSSMPSDPVQLQIHNDWLLLQASRRVLTEGEPLALRCHGWKNKLVYNVVFYRNGKSFQFSSDSEVAILKTNLSHSGIYHCSGTGRHRYTSAGVSITVKELFTTPVLRASVSSPFPEGSLVTLNCETNLLLQRPGLQLHFSFYVGSKILEYRNTSSEYHIARAEREDAGFYWCEVATEDSSVLKRSPELELQVLGPQSSAPHHHHHH
notes: range 25-297; Soluble form bought from R&D Systems; also called m-FcγRI

t1/2 (chimeric antibody c515H7 [7]): 19.3 min
t1/2 [8]: 21.4 min
t1/2 (chimeric antibody c515H7 [9]): 158 min
t1/2 (chimeric antibody c515H7 [10]): 19.3 min
t1/2 [11]: 578 min
t1/2 [12]: 28.9 min
B2: Recombinant human FcγRI [CD64], Gln16-Pro288 with C-terminal 6-His tag (receptor)
chain: QVDTTKAVITLQPPWVSVFQEETVTLHCEVLHLPGSSSTQWFLNGTATQTSTPSYRITSASVNDSGEYRCQRGLSGRSDPIQLEIHRGWLLLQVSSRVFTEGEPLALRCHAWKDKLVYNVLYYRNGKAFKFFHWNSNLTILKTNISHNGTYHCSGMGKHRYTSAGISVTVKELFPAPVLNASVTSPLLEGNLVTLSCETKLLLQRPGLQLYFSFYMGSKTLRGRNTSSEYQILTARREDSGLYWCEAATEDGNVLKRSPELELQVLGLQLPTPHHHHHH
notes: range 16-288; Soluble form bought from R&D Systems; also called h-FcγRI

t1/2 (chimeric antibody c515H7 [13]): 2.61 min
t1/2 [14]: 3.17 min
t1/2 (chimeric antibody c515H7 [15]): 4.85 min
t1/2 (chimeric antibody c515H7 [16]): 2.59 min
t1/2 [17]: 313 min
t1/2 [18]: 0.39 min
B3: Recombinant mouse FcγRIII [CD16], Ala31-Thr215 with C-terminal 10-His tag (receptor)
chain: ALPKAVVKLDPPWIQVLKEDMVTLMCEGTHNPGNSSTQWFHNGRSIRSQVQASYTFKATVNDSGEYRCQMEQTRLSDPVDLGVISDWLLLQTPQRVFLEGETITLRCHSWRNKLLNRISFFHNEKSVRYHHYKSNFSIPKANHSHSGDYYCKGSLGSTQHQSKPVTITVQDPATTSSISLVWYHTHHHHHHHHHH
notes: Soluble form bought from R&D Systems; also called m-FcγRIII
